Experimental findings from the DeepSol protein solubility set are described below.

The nature of the data set: soluble on expression in E. coli; label from the status in PepcDB or PDB records.
On to “SSTFEDADTEETVTCLQMTIYHPGQQSGIFKSIRFCSKEKFPSIEVVKFGRNSNMCQYTFQDKQVSRIQFVLQPFKQFNSSVLSFEIKNMSKKTSLMVDNQELGYLNKMDLPYKCMLRFGEYQFLLQKEDGESVESFETQFIMSSRPLLQENNWPTQNPIPEDGMYSSYFTHRSSPSEMDENEL”, for which the “soluble on expression in E. coli” value is reported as “soluble”.

On to “MGSDKIHHHHHHMTAYNNNAIYFKNIASGSKGNSTFIWDAHDLIVIDFGITMKKFKEAISELTLGGLNKSIFISHEHADHVSGIRSVKKVDGADVYTRPATAEAANIKAYEIDNEVVIGNFEILAFDVPHDAADPVAFTVKWKDLKISVVSDLGTVTENVISNIRDSDILAFESNHDVSMLKTGRYPASLKRRILSQHGHLSNEQSAEAISKAINESTEIVLTHLSQENNKPEIALNEVKSYLKNRDIKYKDVECADQYVGSSLKSLKT”, for which the “soluble on expression in E. coli” value is on record as “not soluble”.

For the sequence “MGSDKIHHHHHHMDEQIKKAIEAHALAEYPRECCGLVVKTESGEIYVRCRNLAAVPTDQFALASEDYAAAEDMGEIVALVHSHPGASAQPSEADRAMCERSGIEKWVIVSLGVQADGSIGIDDWCEFEPAGYVTRLIGRQFVHGVHDCYAIVRDWYLAERGVLLPDFEREDDWWNDGRSNLYLNHYQDAGFLDVGRGVTLQVGDVLLMQIRSKNDVPNHAGVYLGDGQFLHHMHGRLSARAVWGGMWADCCTTVLRYAGGRK”, the “soluble on expression in E. coli” value is “not soluble”.

In the case of “MGSDKIHHHHHHMTLTTKTIHVIGASFAGLAFVDKYKDLNPDSQIILIDKESCPNYIPNGINQLFRGDIQDLSDAMWGRACLAAQIESNHRFIQAEVLAIEAPSNTLLLKDSQGRVFEEGYETLVCAMGASPQSHYIETSQTNKVLVTKYYEESQASLKLIEASQEVLVIGAGLIGLDLAYSLSLQGKRVKLIEAAERPDFYQTDAELIAPVMAEMSTHHVTFINNKRVTAIHEIEGKVVAHTEQGDTFQGDLAILAINFRPNTHLLQGQVACALDKTILVNENLQTSQANIYAIGDMVSLHFGILGMDYYTPLINQAMKTGQALALHLAGYPIPPLQTVKVLGSSHFDYYRASVGVTEEEAELYMDTCSYLYQNGDSKNLFWLKLIARKTDGILIGAQLLSKTNALVIANQLGQALALKVTDADLAFQDFLFLQGHSDLAYHLHEACLKLFEKRLRHED”, the “soluble on expression in E. coli” value is listed as “not soluble”.

With “AEEGAVAVCVRVRPLNSREESLGETAQVYWKTDNNVIYQVDGSKSFNFDRVFHGNETTKNVYEEIAAPIIDSAIQGYNGTIFAYGQTASGKTYTMMGSEDHLGVIPRAIHDIFQKIKKFPDREFLLRVSYMEIYNETITDLLCGTQKMKPLIIREDVNRNVYVADLTEEVVYTSEMALKWITKGEKSRHYGETKMNQRSSRSHTIFRMILESREKGEPSNCEGSVKVSHLNLVDLAGSERAAQTGAAGVRLKEGCNINRSLFILGQVIKKLSDGQVGGFINYRDSKLTRILQNSLGGNPKTRIICTITPVSFDETLTALQFASTAKYMKNTPYVNEVSTDEALEHHHHHH”, the “soluble on expression in E. coli” value is “soluble”.

As for “MHHHHHHSSGRENLYFQGMWDQRLVRLALLQHLRAFYGIKVKGVRGQCDRRRHETAATEIGGKIFGVPFNALPHSAVPEYGHIPSFLVDACTSLEDHIHTEGLFRKSGSVIRLKALKNKVDHGEGCLSSAPPCDIAGLLKQFFRELPEPILPADLHEALLKAQQLGTEEKNKATLLLSCLLADHTVHVLRYFFNFLRNVSLRSSENKMDSSNLAVIFAPNLLQTSEGHEKMSSNTEKKLRLQAAVVQTLIDYASDIGRVPDFILEKIPAML”, the “soluble on expression in E. coli” value is “soluble”.

Turning to “MKTLIARHKAGEHIGICSVCSAHPLVIEAALAFDRNSTRKVLIEATSNQVNQFGGYTGMTPADFREFVFTIADKVGFARERIILGGDHLGPNCWQQENADAAMEKSVELVKAYVRAGFSKIHLDASMSCAGDTIPLAPETVAERAAVLCFAAESVATDCQREQLSYVIGTEVPVPGGEASAIQSVHITHVEDAANTLRTHQKAFIARGLTEALTRVIAIVVQPGVEFDHSNIIHYQPQEAQALAQWIENTRMVYEAHSTDYQTRTAYWELVRDHFAILKVGPALTFALREAIFALAQIEQELIAPENRSGCLAVIEEVMLDEPQYWKKYYRTGFNDSLLDIRYSLSDRIRYYWPHSRIKNSVETMMVNLQGVDIPLGMISQYLPKQFERIQSGELSAMPHQLIMNKIYDVLRAYRYGCAE”, the “soluble on expression in E. coli” value is recorded as “not soluble”.

Regarding “MGSDKIHHHHHHMIDTFERTGPLMEASSYPAWAQQLINDCSPAKARVVEHELYQQMRDAKLSPQIMRQYLIGGWPVVEQFAVYMAKNLTKTRFGRHPGEDMARRWLMRNIRVELNHADYWVNWCAAHDVTLEDLHDQRVAPELHALSHWCWQTSSSDSLAVAMAATNYAIEGATGEWSAVVCSTGVYAEAFAEETRKKSMKWLKMHAQYDDAHPWEALEIICTLVGNKPSLQLQAELRQAVTKSYDYMYLFLERCIQLDKVKSPRGRVAALEM”, the “soluble on expression in E. coli” value is recorded as “not soluble”.

With “SVYTYFSAVAGQDGEVDAEELQRCLTQSGINGTYSPFSLETCRIMIAMLDRDHTGKMGFNAFKELWAALNAWKENFMTVDQDGSGTVEHHELRQAIGLMGYRLSPQTLTTIVKRYSKNGRIFFDDYVACCVKLRALTDFFRKRDHLQQGSANFIYDDFLQGTMAI”, the “soluble on expression in E. coli” value is “soluble”.

Consider “MISTANITQQFGAKPLFENISVKFGEGNRYGLIGANGCGKSTFMKILSGELEPTGGNVSYDPNERVAKLNQDQFAYEEFTVIDTVIMGHKELWEVKQERDRIYSLPEMSEEDGMKVADLEVQFAEMDGYMAEAKAGELLLAVGIPMEQHFGLMSEVAPGWKLRVLLAQILFADPDIMLLDEPTNNLDMDTIRWLEDTLNARNCTMIIISHDRHFLNSVCTHMADLDYGELRVYPGNYDEYMTAASQARERLLSDNAKKKAQIAELQTFVARFSANASKAKQATSRAKQIDKIKLDEVKASSRQNPFIRFEQSKELFRNA”, for which the “soluble on expression in E. coli” value is “not soluble”.

Take “MALVQALVPREREPKLSILQMDRGDPQHSSHWCPEREKVKLLTLKPRETSKNILINFYRAFNLDKDVFIHQANHPLTVPSSVVMGDNGHTLAEDDKRPCFRVLPCYLERVSSGISISWISAPLPVGAMKHQLLCDLMDLITLSFWLAGQCMSLKATNMQHCKCSIATSDWAIELDRTDYKTLPSEYSILALLQVFAGKNCMDRVLLHVDVNYLKSLP”: the “soluble on expression in E. coli” value is given as “soluble”.

Turning to “MSLRNKLQQAKRIVIKVGTSSLIYPNGNINLKAIDQLAFTLSDLSNQGKEIILVSSGAIGVGLNKLNLSVRPTTIPEQQAVAAVGQAELMNIYNQRFSTYSQQMAQVLLTRDVIEYPESRNNVTNTFEQLLKMNIIPIVNENDTVAIEELDHLTKFGDNDQLSAIVCQIVQADLLVMLSDIDGFFSDNPTVNKEATLFSEINEINEDLFQLAGGKGSRFGTGGMSSKLKAAERVLANQQAMILANGKQPKIIFEILEGKDIGTLFIKGGHESDEGHHHHHH”, the “soluble on expression in E. coli” value is “soluble”.

On to “MKTAIVYYSQHHGNTKKLLDAIAIVDDVTLIDVTKHTAYDLNEFNLIGFASGIYFQKFSKKVLDFAKNNLPFNKKVFFIYTCGIKFPSYTVAIRAVVKEKNADIVGEYGCPGFDTFGPFKIVGGIRKGRPNENDIAKAVQFFRGILKLEHHHHHH”, for which the “soluble on expression in E. coli” value is “soluble”.

Take “MKVWRVEKREEGWRLDQFLKEKTPSWISRSMIQKAIKEGKVKVNGQIKKPSYKLKEGEIVEVDLPEKPQEATVQPEEIELKVLYEDRDIIVIDKPGDMIVHPVPSKLSGTLVNALLHHCKDLQGVGGKLRPGIVHRLDKETSGVIVVAKNDFAHQSLSKQFKDRKVKKTYILLVKGKMKNDEGVIDLPLARHPVLRIKMAVVETGKEAITEYRVLKRFDDVATLVLAFPKTGRTHQIRVHMKSLGHPIMGDKIYGKPKEDEIFGIKRQMLHALKLGFFHPRTGEWMEFVSPLPEDFKEAIRRIHEYVRERS”: the “soluble on expression in E. coli” value was “soluble”.

Consider “GAMGMKVDVGPDPSLVYRPDVDPEMAKSKDSFRNYTSGPLLDRVFTTYKLMHTHQTVDFVSRKRIQYGSFSYKKMTIMEAVGMLDDLVDESDPDVDFPNSFHAFQTAEGIRKAHPDKDWFHLVGLLHDLGKIMALWGEPQWAVVGDTFPVGCRPQASVVFCDSTFQDNPDLQDPRYSTELGMYQPHCGLENVLMSWGHDEYLYQMMKFNKFSLPSEAFYMIRFHSFYPWHTGGDYRQLCSQQDLDMLPWVQEFNKFDLYTKCPDLPDVESLRPYYQGLIDKYCPGTLSW”, for which the “soluble on expression in E. coli” value is listed as “soluble”.

Consider “MKIIDFRLRPPAMGFLNARIYTRPDIRNRFTRQLGFEPAPSAEEKSLELMFEEMAAAGIEQGVCVGRNSSVLGSVSNADVAAVAKAYPDKFHPVGSIEAATRKEAMAQMQEILDLGIRIVNLEPGVWATPMHVDDRRLYPLYAFCEDNGIPVIMMTGGNAGPDITYTNPEHIDRVLGDFPDLTVVSSHGNWPWVQEIIHVAFRRPNLYLSPDMYLYNLPGHADFIQAANSFLADRMLFGTAYPMCPLKEYTEWFLTLPIKPDAMEKILHGNAERLLAQAGRLEHHHHHH”, for which the “soluble on expression in E. coli” value is “not soluble”.

As for “MLKRTPLFPVYARYGAKTIEFGGWEMPVQFSSIKEEHEAVRTRAGLFDVSHMGEIVVRGRGSLAFLQKLMTNDVAKLRPGRAQYTLMCYEDGGTVDDLLIYQKGENDYLLVVNAANTEKDFAWLSGHVEGDVELQDVSSETAQLALQGPAAERVLQRLTDFDLAALRPFSFADGVEVSGVKALVSRTGYTGEDGFELYCKAEDAAALWEAILAAGARDGVLPCGLGARDTLRFEACLPLYGQELSDSISPVEAGLGFAVKTEKEPPFIGQAVLKRQKEEGPPRRLVGIEMIDRGIPRHGYLVFADGEEVGFVTTGTQSPTLKKNIGLALVKADVAAIGREVEVDIRGKRLKANIVPIPFYRRAK”, the “soluble on expression in E. coli” value is “not soluble”.

As to “MLATPFWYNAALKVLKPVYRWRIKKRAENEMRYQQECRERFGPFQQPQNRHALWFHAVSVGETNAAQPLIEYYLKLGHPVLVTNTTKTGQARAKSLFLKSPYLELFQAVYLPVDQIFLLKQFFELYQPKLLALVETELWPNLIDQAQHYGVPTFLINARLSEKSAQGYARVSALSNAMLSRLTGLLAQDQSTQQRFIGLGLAREKAQVVGNIKFDIDVPLLFVLEHHHHHH”, the “soluble on expression in E. coli” value is recorded as “not soluble”.

“MAHHHHHHMVFNQDHHEKECADAFVLARDGMSDFEGEKIERAFRGVTAALRFLDYQETTGTSTRSPTGSNSNAEQRSSGSHEPLVSGEDTNYHHVVCLVRSLDGEKENTPVN”: the “soluble on expression in E. coli” value is “not soluble”.

Consider “MFNCLGTSNRDFVEGASGATWIDLVLEGGSCVTVMAPEKPTLDFKVMKMEATELATVRKYCYEATLDTLSTVARCPTTGEAHNTKRSDPTFVCKRDVVDRGWGNGCGLFGKGSIDTCAKFTCKNKATGKTILRENIKYEVAIFVHGSTDSTSHGNYFEQIGKNQAARFTISPQAPSFTANMGEYGTVTIDCEARSGINTEDYYVFTVKEKSWLVNRDWFHDLNLPWTSPATTDWRNRETLVEFEEPHATKQTVVALGSQEGALHTALAGAIPATVSSSTLTLQSGHLKCRAKLDKVKIKGTTYGMCDSAFTFSKNPTDTGHGTVIVELQYTGSNGPCRVPISVTANLMDLTPVGRLVTVNPFISTGGANNKVMIEVEPPFGDSYIVVGRGTTQINYHWHKEGSSIGKA”, for which the “soluble on expression in E. coli” value is recorded as “not soluble”.
